Experimental data published in US11904004B2, “Anti-CD277 antibodies” (INSTITUT NATIONAL DE LA SANTE ET DE LA RECHERCHE MEDICALE …, priority 2010, dated 2024).
Several values for one entry are separate records, joined by “and”; a condition that tells them apart may be missing. Equal entries are not always repeated.

Assays:
[1] = tested on: monocytes; assay: Apoptosis detection (Annexin V), survival of monocytes; assay type: cell-based, human; settings: both monocytes and iDC; data not shown
Description: (§1) Blood samples were obtained from 5 healthy volunteers enrolled among the staff members, after informed consent. Monocytes were separated from peripheral blood mononuclear cells, and isolated using the MACS CD14 isolation kit (Miltenyi Biotech, Auburn, Calif. USA). Monocytes were cultured for 5 days with 200 ng/ml of recombinant human GM-CSF and 10 ng/ml recombinant human IL-4 (Schering-Plough Research Institute). These cells were termed immature dendritic cells (iDC). To achieve the stimulation, monocytes and iDC were cultured with 10 ng/ml of LPS, ligand for TLR4, 30 μg/ml of 8848 (Sigma-Aldrich, Milano, Italy), ligand for TLR7/8 and with […] of poly (I:C) (Sigma-Aldrich), ligand for TLR3, and were harvested after 48 h. The cells were cultured in RPMI 1640 supplemented with 10% heat-inactivated FCS, 5 mM L-glutamine and 50 IU/ml penicillin-streptomycin (from here on referred to as complete medium).
(§2) Monocytes and iDC were cultured on plastic coated with anti-BT3 mAb (clone 20.1) or with isotype-matched irrelevant mAb. As control, the cells were stimulated with 20 ng/ml recombinant human GM-CSF (Schering-Plough Research Institute). After three days, cells were harvested, stained with Annexin V-FITC (Bender MedSystems, Wien, Austria) and analysed by flow cytometry.

[2] = tested on: immature dendritic cells (iDC); assay: Apoptosis detection (Annexin V), survival of iDC; assay type: cell-based, human; settings: plastic-coated mAb or GM-CSF, 72-h culture, representative value and range of five experiments, listed as anti-BT3 mAb
Description: as §1, §2

[3] = tested on: Daudi, K562 or Raji cells lines; assay: Anti-tumor cytolysis by Vγ9Vδ2 T cells against tumor cell lines (CD107a/b degranulation); assay type: cell-based, human
Description: We used for γδ T cells labelling in purity test after expansion, anti-CD3 PE-Cy7 and anti-Vδ2 FITC mAb (BD Pharmingen). For CD277 characterisation in different subsets PBMC were incubated with the following antibodies and molecules: anti-CD3 PE-Cy5 (BD Pharmingen), anti-CD4 PB (BD Pharmingen), anti-CD8 PB (BD Pharmingen), anti-Vδ2 FITC (BD Pharmingen), anti-CD27 APC ALEXA FLUOR® 750 (CALTAG Laboratory), anti-CCR7 PECy7 (BD Pharmingen), anti-CD28 PE (Beckman Coulter), anti-CD45RA ECD (Beckman Coulter), LIVE/DEAD® Fixable Dead Cell Stain Kit (L34957, Invitrogen) and anti-CD277 labelled with ALEXA FLUOR® 647 (Protein labelling Kit ALEXA FLUOR® 647, Molecular Probes, Invitrogen). For analysis of CD107a and CD107b expression, γδ T cells and target cells were co-incubated at 37° C. with anti-CD107a FITC and anti-CD107b FITC in presence of monensin (10 μM, GOLIGISTOP®, BD Bioscience). […] All samples were measured on FACSCANTO® or FACSARIA® flow cytometers (BD Biosciences) using FACSDIVA® software. […]
Target cells were labelled with 20 μCi of 51Cr (PerkinElmer) for 1 h at 37° C. […] The radioactivity released by target cells was measured, 4 h later, on beta plate counter. The percentage of specific 51Cr lysis was calculated using the following equation: percent specific lysis=100×[(test release)−(spontaneous release)]/[(maximal release)−(spontaneous release)].

[4] = tested on: primary AML blasts; assay: Chromium release assay, lysis of primary AML blasts by NK cells; assay type: cell-based, human
Description: Effector γδ T cells were established and maintained as previously described^28. PBMC from HV were stimulated with ZOL (1 μm) and rhlL-2 (200 IU/ml) at Day 0. From Day 5, rhIL-2 was renewed every two days and cells were kept at 1.5×10^6/m1 for 15 days. NK cells were isolated using EASYSEP® Human NK cell enrichment kit (StemCell Technologies). The purity of γδ T cells and NK cells was determined by flow cytometry and respectively greater than 80% and 98%. The Burkitt lymphoma cell line, DAUDI, the human AML cell line, U937, and the erythroleukemic cell line, K562, were obtained from the American Type Culture Collection and cultured (0.5×10^6/ml) in RPMI 1640 medium with 10% FCS. […]
0.5×10^6 target cells were incubated with 50 pCi of ^51Cr (Perkin-Elmer) for AML blasts and 10 pCi for DAUDI and K562 cells for 90 minutes and mixed with effector cells in a Effector:Target (E:T) ratio of […]. After 4 hours of incubation at 37° C., 50p1 supernatant of each sample was transferred in LUMA® plates and radioactivity was determined by a gamma counter. The percentage of specific lysis was calculated using the formula [(experimental−spontaneous release/total−spontaneous release)×100] and expressed as the mean of triplicate.

[5] = tested on: Vγ9/Vδ2 T cells; assay: Cytolytic function, cytokine production and proliferation of Vγ9/Vδ2 T cells; assay type: cell-based
Excerpt: Typically the activation of the cytolytic function of Vγ9/Vδ2 T cells may be measured according to the method described in example 3 (i.e. “Analysis of Vγ9Vδ2 T cell responses by direct cytotoxicity assay”, and for example the results “CD277 potentiate the anti-tumor cytolysis mediated by Vγ9Vδ2 T cells”). Examples of isolated anti-CD277 antibodies, which activate the cytolytic function, cytokine production and proliferation of Vγ9/Vδ2 T cells, are mAbs 20.1 or 7.2, or derivatives thereof.
Target cells were labelled with 20 μCi of 51Cr (PerkinElmer) for 1 h at 37° C. After washing target cells were incubated with effectors Vγ9Vδ2 T cells for 4 h at 37° C. in different ratio. Incubations were performed in presence of specific or isotype control mAbs or Fab fragments. The radioactivity released by target cells was measured, 4 h later, on beta plate counter. The percentage of specific 51Cr lysis was calculated using the following equation: percent specific lysis=100×[(test release)−(spontaneous release)]/[(maximal release)−(spontaneous release)].

B1: mAb 20.1: murine anti-CD277 antibody obtainable from the hybridoma CNCM I-4402; agonist (antibody, V domains shown)
VH: QVQLQQSGAELVKPGASVKLSCKASGYTFTRYYLYWVKQRPGQGLEWIGEINPNNGGTKFNEKFKSKATLTVDKSSRTTYIQLSSLTSEDSAVYYCSREDDYDGTPDAMDYWGQGTAVTVSS
VL: DIQMNQSPSSLSASLGDTITITCHASQNINLWLSWYQQRPGNIPKLLIYRASNLHTGVPSRFSGSGSATGFTLTISSLQPEDIATYYCQQGHSYPYTFGGGTKLDIK
For B1, the “lowest anti-BT3 mAb dilution able to promote a good survival capability” value [1] was 10 µg/mL, the “healthy-vital (surviving) iDC” value [2] was 56.75% and 53.13-60.71% and the “function/activation of Vγ9Vδ2 T cells against tumor targets (CD107a/b degranulation assay)” value [3] was “potentiated or revealed”. For the same molecule, the “NK cells-mediated AML blasts lysis” value [4] was “no effect” and the “cytolytic function, cytokine production and proliferation of Vγ9/Vδ2 T cells” value [5] was “activate”.
